In patent US20250011363A1 (published 2025):

target: acetylcholine receptor on acetylcholine receptor-overexpressing TE671 cells; assay: cell-based or functional assay

| inhibition of acetylcholine receptors (calcium imaging with Fura-2-AM, TE671 cells, nicotine 400 uM) | Binder |
| --- | --- |
| 10 µM | RSYSR [5mer-311] |
| 10 µM | RRGVRR [6mer-1-210] |
| 10 µM | KWRQKR [6mer-2-233] |
| 10 µM | RWRYKR [6mer-2-136] |
| 10 µM | RKRIRR [6mer-1-43] |
| 10 µM | RRQRR [5mer-73] |
